Results on one molecule are retold here after publication PMC4119988 (British Journal of Cancer, 2014).

For the assay, the target named is OTU domain-containing protein 1 (Homo sapiens (Human)., UniProt Q5VV17). Put plainly: far-Western, overlay or dot blot.
Sequence of OTU domain-containing protein 1 (Q5VV17 whole entry, the tested form may be a part): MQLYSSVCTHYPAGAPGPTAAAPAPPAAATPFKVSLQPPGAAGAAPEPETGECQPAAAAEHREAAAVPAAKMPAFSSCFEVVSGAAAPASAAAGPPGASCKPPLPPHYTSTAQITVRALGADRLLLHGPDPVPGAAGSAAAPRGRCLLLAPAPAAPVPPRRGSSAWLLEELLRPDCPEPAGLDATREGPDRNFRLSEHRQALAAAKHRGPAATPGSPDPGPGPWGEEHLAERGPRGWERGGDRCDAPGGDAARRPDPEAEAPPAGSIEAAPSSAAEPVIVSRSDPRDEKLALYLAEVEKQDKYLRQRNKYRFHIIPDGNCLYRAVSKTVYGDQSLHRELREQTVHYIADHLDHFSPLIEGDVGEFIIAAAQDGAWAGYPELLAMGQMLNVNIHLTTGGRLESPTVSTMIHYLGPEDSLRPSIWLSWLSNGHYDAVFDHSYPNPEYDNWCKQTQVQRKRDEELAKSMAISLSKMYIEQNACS

B1: scFv-C1 (scFv, V domains shown)
VH: EVQLLESGGGLVQPGGSLGLSCVASGFTFSDRWMSWVRQAPGKGLEWVAKIKQDGSEKLYVDSVKGRFTIPRDNSKNSLYLQMDSLRAEDTAVYYCVRGAGWLLDHWGQGILVTVSS
VL: SYVLTQPPSVSVAPGKTARITCGGNNIGRKSVHWYQQKPGQAPVLVVYDDSDRPSGIPERFSGSNSGNTATLTISRVEAGDEADYYCQVWDSSSDHSNWVFGGGTQLTVL
For B1, the binding result is “binds”.
